Kd data for 1 molecule are collected here from US20220064329A1 (Novo Nordisk, published 2022).

What all share (test): SPR, Biacore T200, 25 C; FVII(a) variant captured on anti-Gla Ab 4F6, mAb0842(OA) injected
In general terms: SPR reads the build-up and loss of mass on a sensor chip optically.

One experiment addresses T1, FVII(a) variant T185A (human, UniProt P08709 61-466).
T1 construct: hFVII alanine variant in cell culture supernatant
T1 sequence: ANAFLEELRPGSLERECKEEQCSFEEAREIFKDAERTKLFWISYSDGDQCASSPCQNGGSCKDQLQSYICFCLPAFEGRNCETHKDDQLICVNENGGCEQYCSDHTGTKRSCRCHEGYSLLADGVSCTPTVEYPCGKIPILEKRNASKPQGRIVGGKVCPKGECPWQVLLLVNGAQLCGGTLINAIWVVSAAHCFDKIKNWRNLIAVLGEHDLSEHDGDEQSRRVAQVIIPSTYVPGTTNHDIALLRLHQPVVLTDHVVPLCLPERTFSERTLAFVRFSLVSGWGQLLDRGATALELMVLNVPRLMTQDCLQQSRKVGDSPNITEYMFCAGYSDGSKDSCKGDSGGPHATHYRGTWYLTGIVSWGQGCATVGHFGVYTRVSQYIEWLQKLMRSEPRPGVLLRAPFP
As to the method:
(§1) The running buffer was prepared by diluting 10-fold the 10×HBS-P buffer (supplied by GE Healthcare) and supplemented with 1 mg/ml BSA and 5 mM CaCl2 to give 10 mM HEPES, 150 mM NaCl, 0.05% v/v Polysorbate 20, pH 7.4, 5 mM CaCl2, 1 mg/ml bovine serum albumin (BSA). […] Regeneration of the chip was achieved using 10 mM HEPES, 150 mM NaCl, 20 mM EDTA, 0.05 v/v Polysorbate 20, pH 7.4. Binding data were analysed according to a 1:1 Kinetic model and steady state analysis using BiaEvaluation 4.1 supplied by the manufacturer (Biacore AB, Uppsala, Sweden). Wherever possible, ka, kd and KD values from 1:1 kinetic fitting model are reported. […] An amino acid residue is considered a hot-spot residue if substitution of that amino acid residue with alanine results in an affinity reduction of ten (10) fold or more relative to the wild type.

For another experiment, the target named is T2, FVII(a) variant P251A (human, UniProt P08709 61-466).
T2 construct: hFVII alanine variant in cell culture supernatant
T2 sequence: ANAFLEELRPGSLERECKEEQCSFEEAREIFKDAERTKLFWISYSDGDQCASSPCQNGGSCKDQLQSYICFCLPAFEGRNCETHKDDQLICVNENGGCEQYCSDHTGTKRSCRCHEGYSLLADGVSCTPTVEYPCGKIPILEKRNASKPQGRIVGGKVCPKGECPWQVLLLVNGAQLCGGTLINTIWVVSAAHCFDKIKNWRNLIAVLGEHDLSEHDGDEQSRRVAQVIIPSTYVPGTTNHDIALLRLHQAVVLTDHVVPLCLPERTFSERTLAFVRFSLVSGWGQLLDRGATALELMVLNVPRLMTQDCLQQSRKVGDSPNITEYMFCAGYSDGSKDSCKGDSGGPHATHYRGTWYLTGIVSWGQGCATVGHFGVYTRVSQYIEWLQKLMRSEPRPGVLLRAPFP
As to the method: as §1

In a further experiment the target is T3, FVII(a) variant V252A (human, UniProt P08709 61-466).
T3 construct: hFVII alanine variant in cell culture supernatant
T3 sequence: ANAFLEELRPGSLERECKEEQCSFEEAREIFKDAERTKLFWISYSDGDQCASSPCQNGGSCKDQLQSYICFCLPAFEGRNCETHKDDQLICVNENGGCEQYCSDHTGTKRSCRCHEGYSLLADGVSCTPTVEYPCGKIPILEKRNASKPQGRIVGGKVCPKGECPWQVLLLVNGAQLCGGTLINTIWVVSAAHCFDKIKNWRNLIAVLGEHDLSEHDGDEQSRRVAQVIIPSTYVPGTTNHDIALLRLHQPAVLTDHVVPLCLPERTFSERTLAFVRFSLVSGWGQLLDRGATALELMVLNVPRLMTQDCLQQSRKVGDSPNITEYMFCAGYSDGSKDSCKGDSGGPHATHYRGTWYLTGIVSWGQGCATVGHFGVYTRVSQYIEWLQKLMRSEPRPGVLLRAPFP
On the procedure: as §1

For another experiment, the target named is T4, FVII(a) variant M391A (human, UniProt P08709 61-466).
T4 construct: hFVII alanine variant in cell culture supernatant
T4 sequence: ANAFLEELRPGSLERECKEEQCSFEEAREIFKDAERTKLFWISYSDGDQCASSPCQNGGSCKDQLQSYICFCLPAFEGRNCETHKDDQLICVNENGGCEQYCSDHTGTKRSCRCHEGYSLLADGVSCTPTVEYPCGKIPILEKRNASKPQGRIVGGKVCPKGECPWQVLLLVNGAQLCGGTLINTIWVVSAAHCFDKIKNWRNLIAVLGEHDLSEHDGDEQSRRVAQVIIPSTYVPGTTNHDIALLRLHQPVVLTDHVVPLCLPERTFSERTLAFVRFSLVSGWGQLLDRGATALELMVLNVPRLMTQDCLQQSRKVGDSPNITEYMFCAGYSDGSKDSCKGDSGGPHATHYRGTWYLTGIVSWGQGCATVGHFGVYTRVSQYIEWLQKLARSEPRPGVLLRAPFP
As to the method:
as §1

The next experiment deals with T5, FVII(a) variant E116A (human, UniProt P08709 61-466).
T5 construct: hFVII alanine variant in cell culture supernatant
T5 sequence: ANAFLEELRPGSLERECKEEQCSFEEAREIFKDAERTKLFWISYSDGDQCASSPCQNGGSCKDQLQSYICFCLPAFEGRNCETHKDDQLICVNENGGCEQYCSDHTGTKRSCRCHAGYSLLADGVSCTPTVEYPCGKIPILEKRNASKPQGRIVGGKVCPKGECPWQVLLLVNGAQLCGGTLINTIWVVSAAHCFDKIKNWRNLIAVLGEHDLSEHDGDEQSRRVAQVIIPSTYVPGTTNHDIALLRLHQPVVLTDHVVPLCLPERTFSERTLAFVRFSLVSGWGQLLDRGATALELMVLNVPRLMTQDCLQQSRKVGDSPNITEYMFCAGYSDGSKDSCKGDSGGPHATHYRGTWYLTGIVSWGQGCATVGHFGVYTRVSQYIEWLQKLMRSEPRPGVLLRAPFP
On the procedure:
as §1

B1: mAb0842(OA) (antibody, human IgG4 S228P, kappa)
heavy: QVQLQESGPGLVKPSQTLSLTCTVSGYSISSDSAWSWIRQPPGKGLEWIGYIQYSGSTNYNPSLKSRVTISRDTSKNQFSLKLSSVTAADTAVYYCARSVNYYGNSFAVGYWGQGTLVTVSSASTKGPSVFPLAPCSRSTSESTAALGCLVKDYFPEPVTVSWNSGALTSGVHTFPAVLQSSGLYSLSSVVTVPSSSLGTKTYTCNVDHKPSNTKVDKRVESKYGPPCPPCPAPEFLGGPSVFLFPPKPKDTLMISRTPEVTCVVVDVSQEDPEVQFNWYVDGVEVHNAKTKPREEQFNSTYRVVSVLTVLHQDWLNGKEYKCKVSNKGLPSSIEKTISKAKGQPREPQVYTLPPSQEEMTKNQVSLSCAVKGFYPSDIAVEWESNGQPENNYKTTPPVLDSDGSFFLVSRLTVDKSRWQEGNVFSCSVMHEALHNHYTQKSLSLSLGK
light: EIVLTQSPATLSLSPGERATLSCRASQGISDYLHWYQQKPGEAPRLLIKYTSQPATGIPARFSGSGSGTDFTLTISSLEPEDFAVYYCQNGHSFPLTFGQGTKLEIKRTVAAPSVFIFPPSDEQLKSGTASVVCLLNNFYPREAKVQWKVDNALQSGNSQESVTEQDSKDSTYSLSSTLTLSKADYEKHKVYACEVTHQGLSSPVTKSFNRGEC
chain: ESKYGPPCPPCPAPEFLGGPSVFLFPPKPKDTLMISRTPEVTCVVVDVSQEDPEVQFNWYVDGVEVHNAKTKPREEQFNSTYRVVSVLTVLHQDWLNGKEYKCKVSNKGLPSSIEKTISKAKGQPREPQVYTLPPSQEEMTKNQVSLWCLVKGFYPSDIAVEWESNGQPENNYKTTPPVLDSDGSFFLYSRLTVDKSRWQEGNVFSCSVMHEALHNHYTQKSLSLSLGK
notes: also called monovalent humanized 11F2 antibody; one-armed anti-FVII(a) antibody
In general, Kd refers to the free concentration of one partner at which half of the binding sites on the other are occupied at equilibrium, for simple one-to-one binding. For the molecule B1, the dissociation constant Kd worked out at 1.01 nM with FVII(a) variant T185A; 0.85 nM with FVII(a) variant P251A; 0.28 nM with FVII(a) variant V252A; 0.25 nM with FVII(a) variant M391A; 0.5 nM in the experiment with FVII(a) variant E116A.
